Source: the DeepSol protein solubility set

Test: soluble on expression in E. coli; label from the status in PepcDB or PDB records

**Q.** For “MPQPEQLPGPNADIWNWQLQGLCRGMDSSMFFHPDGERGRARTQREQRAKEMCRRCPVIEACRSHALEVGEPYGVWGGLSESERDLLLKGTMGRTRGIRRTA”, which “soluble on expression in E. coli” value is on record?
**A.** not soluble

**Q.** For “MSLSINSREVLAEKVKNAVNNQPVTDMHTHLFSPNFGEILLWDIDELLTYHYLVAEVMRWTDVSIEAFWAMSKREQADLIWEELFIKRSPVSEACRGVLTCLQGLGLDPATRDLQVYREYFAKKTSEEQVDTVLQLANVSDVVMTNDPFDDNERISWLEGKQPDSRFHAALRLDPLLNEYEQTKHRLRDWGYKVNDEWNEGSIQEVKRFLTDWIERMDPVYMAVSLPPTFSFPEESNRGRIIRDCLLPVAEKHNIPFAMMIGVKKRVHPALGDAGDFVGKASMDGVEHLLREYPNNKFLVTMLSRENQHELVVLARKFSNLMIFGCWWFMNNPEIINEMTRMRMEMLGTSFIPQHSDARVLEQLIYKWHHSKSIIAEVLIDKYDDILQAGWEVTEEEIKRDVADLFSRNFWRFVGRNDHVTSVKVEQQTEGHHHHHH”, which “soluble on expression in E. coli” value is on record?
**A.** soluble

**Q.** With “MTTNLTNSNCVEEYKENGKTKIRIKPFNALIELYHHQTPTGSIKENLDKLENYVKDVVKAKGLAIPTSGAFSNTRGTWFEVMIAIQSWNYRVKRELNDYLIIKMPNVKTFDFRKIFDNETREKLHQLEKSLLTHKQQVRLITSNPDLLIIRQKDLIKSEYNLPINKLTHENIDVALTLFKDIEGKCKWDSLVAGVGLKTSLRPDRRLQLVHEGNILKSLFAHLKMRYWNPKAEFKYYGASSEPVSKADDDALQTAATHTIVNVNSTPERAVDDIFSLTSFEDIDKMLDQIIKK” as the sequence, how does the “soluble on expression in E. coli” value read?
**A.** soluble

**Q.** Which “soluble on expression in E. coli” value does the source give for “MEKNTIILGIETSCDETAVAVVKNGTEIIANVVASQIESHKRFGGVVPEIASRHHVEEITVVLEEALKEANITFDDIDAIAVTEGPGLVGALLIGVNAAKAVAFAHDIPLVGVHHIAGHIYANRLVKEVQFPLLSLVVSGGHTELVYMKEHGSFEVIGETRDDAAGEAYDKVARTLSMPYPGGPHIDRLAHEGKPTIDLPRAWLEPDSYDFSFSGLKSAVINTVHNAKQRGIEIAPEDLAASFQESVIDVLVTKASRAADAYNVKQVLLAGGVAANKGLRARLETEFAQKENVELIIPPLSLCTDNAAMIAAAGTIAYEQGKRATLALNANPGLDIEA” here?
**A.** not soluble

**Q.** Which “soluble on expression in E. coli” value does the source give for “MRKMKKMDADTLTAILAFQRLSGTGKSLLEGAAKDAEAGRYSIIAINPVHEIKVYQHDYYIDGTHQVVADPLKEIELFIEKAREDELELPLDSGAIGYVGYDVIALYEDLGEIPVETRDIPDIRFYVYESFVIMDHQAEELILVQDNCYSGRSEADLDKALESMLTELTTPKKDEHKAVHVPKMSYKSNYTKDEYMGLVKKAKTYIQEGDFFQIVLSQRLEADFTVKPFDYYRKLRLLNPSPYLYFIDFGDTVLIGSSPESLIKTKGRTVITNPIAGTRRRGATKQEDELLASELLSDEKELAEHRMLVDLGRNDIGKIAETGSVHVPVYLTIERYRFLMHLVSVVEGTLKTGLTAIDALRSTLPAGTVSGAPKIRAMERIYEWENVKRGPYAGAVGYLTKNGDSDFALSIRTMVLHNGKAYVQAGAGIVYDSDPESEYLETLQKAKALLEVGE” here?
**A.** not soluble

**Q.** Which “soluble on expression in E. coli” value does the source give for “MGSDKIHHHHHHMEALRRRIETQVMSLTGLALGQLDLESPKGDPGLFGPHSISWRVHGDFPSMLVGGISALMLQLLHPLALAGVWDHSNFREDLLGRLRRTSQFISGTTFGATGDAEWLIDKVRTIHLQVTGTAPDGRPYAASDPDLLTWVHVAEVSRFLAAHLRYRNPRLPRAEQDAYYNEIALIAERLGARDVPRSCQQVEDYLQHIRPQLHCDARSHEVIRILLDAPAPSRLAQPVGKLMLHAGIDLLPGWAQALLGLQHGPLQQRLIRLGLRRTAPVLRWAMRDGSAHRAKRRMGID” here?
**A.** not soluble

**Q.** Which “soluble on expression in E. coli” value does the source give for “MSKIASEVVATTLNDWYIAIKKQKVDESIKYYSEIKKLFDEMEEDQEVLAYYSLLEERHKMLLHSSRGEPLQKHTYFTEDNQNFITKTNDKLEYNFYLFEAMYEAYNKNYDRAINLYGLAEKKLAEIPDEIEAAEFYSKVSYLYTLVKQSIVAQHYIKNAISIYKRHPDYKCKLATSTMIAAANYADMKRFEEAEQYYLEAIDIAKETKDEFLKAQLFHNLSIVYSDWNKPDKCIESLEKAIGNESWLHSIYYINSLFMMIKELFKIDEKMKAINFYNKAQERLILMENKVYEAKISILYNLYCGELKNNFNNCISNIEFLKQQNELESVDELSYIAAKRFESIGAFEEATSFFNAKIWAE” here?
**A.** soluble

**Q.** With “MSTSSLRRQMKNIVHNYSEAEIKVREATSNDPWGPSSSLMSEIADLTYNVVAFSEIMSMIWKRLNDHGKNWRHVYKAMTLMEYLIKTGSERVSQQCKENMYAVQTLKDFQYVDRDGKDQGVNVREKAKQLVALLRDEDRLREERAHALKTKEKLAQTATASSAAVGSGPPPEAEQAWPQSSGEEELQLQLALAMSKEEADQEERIRRGDDLRLQMAIEESKRETGGKEESSLMDLADVFTAPAPAPTTDPWGGPAPMAAAVPTAAPTSDPWGGPPVPPAADPWGGPAPTPASGDPWRPAAPAGPSVDPWGGTPAPAAGEGPTPDPWGSSDGGVPVSGPSASDPWTPAPAFSDPWGGSPAKPSTNGTTAGGFDTEPDEFSDFDRLRTALPTSGSSAGELELLAGEVPARSPGAFDMSGVRGSLAEAVGSPPPAATPTPTPPTRKTPESFLGPNAALVDLDSLVSRPGPTPPGAKASNPFLPGGGPATGPSVTNPFQPAPPATLTLNQLRLSPVPPVPGAPPTYISPLGGGPGLPPMMPPGPPAPNTNPFLL” as the sequence, how does the “soluble on expression in E. coli” value read?
**A.** soluble

**Q.** With “MAHHHHHHMAYRVQKTTPAVVDNGTSSDGDEAQRASHKTAKTSSPSPIPKPARRKAPIADSDSDDESATRPAAKTTSPKFALKKAAVDSDSSDEDEPVPKNSSAGKRPAPRAEEAPAQRAARTESEGAARRTPHHLNEDGTFRRFQRIDPAKVTFDADALRDNRPGREHLVLRQNQEMMRTKGKGFNKLKQKNKGKFYGAGVDLSVRAYQFPDSDDE” as the sequence, how does the “soluble on expression in E. coli” value read?
**A.** soluble

**Q.** For “MKKLATLTALAGALTMAVATAAQAESKSSSTDNTATPCVGDKCVKTKAAEGKCGEGKCGADKAKSAEGKCGEGKCGADKAKSAEGKCGEGKCGSK”, which “soluble on expression in E. coli” value is on record?
**A.** not soluble

**Q.** With “MVMSFIKYPLPESVLQATEQRIQWVMDNFSRICVSFSGGKDSTVMLHLTAQAARLQGKKICVLFIDWEAQFSCTIAHCEKLRALYADVIETFYWVALPLTTQNALTQYKPQWQCWEPGTEWVRQPPPWAITHPGYFSFYQPGMSFEAFVSHFAEWFSQRRPAAVLVGIRADESLNRFMTISSQRKQRFADDKPWTTSAPGGHAWYIYPLYDWKTADIWTWFAKSGEPYNPLYDLMYQAGVPLRYMRICEP” as the sequence, how does the “soluble on expression in E. coli” value read?
**A.** not soluble

**Q.** With “MPFTLGQRWISDTESELGLGTVVAVDARTVTLLFPSTGENRLYARSDSPVTRVMFNPGDTITSHDGWQMQVEEVKEENGLLTYIGTRLDTEESGVALREVFLDSKLVFSKPQDRLFAGQIDRMDRFALRYRARKYSSEQFRMPYSGLRGQRTSLIPHQLNIAHDVGRRHAPRVLLADEVGLGKTIEAGMILHQQLLSGAAERVLIIVPETLQHQWLVEMLRRFNLRFALFDDERYAEAQHDAYNPFDTEQLVICSLDFARRSKQRLEHLCEAEWDLLVVDEAHHLVWSEDAPSREYQAIEQLAEHVPGVLLLTATPEQLGMESHFARLRLLDPNRFHDFAQFVEEQKNYRPVADAVAMLLAGNKLSNDELNMLGEMIGEQDIEPLLQAANSDSEDAQSARQELVSMLMDRHGTSRVLFRNTRNGVKGFPKRELHTIKLPLPTQYQTAIKVSGIMGARKSAEDRARDMLYPERIYQEFEGDNATWWNFDPRVEWLMGYLTSHRSQKVLVICAKAATALQLEQVLREREGIRAAVFHEGMSIIERDRAAAWFAEEDTGAQVLLCSEIGSEGRNFQFASHMVMFDLPFNPDLLEQRIGRLDRIGQAHDIQIHVPYLEKTAQSVLVRWYHEGLDAFEHTCPTGRTIYDSVYNDLINYLASPDQTEGFDDLIKNCREQHEALKAQLEQGRDRLLEIHSNGGEKAQALAESIEEQDDDTNLIAFAMNLFDIIGINQDDRGDNMIVLTPSDHMLVPDFPGLSEDGITITFDREVALAREDAQFITWEHPLIRNGLDLILSGDTGSSTISLLKNKALPVGTLLVELIYVVEAQAPKQLQLNRFLPPTPVRMLLDKNGNNLAAQVEFETFNRQLNAVNRHTGSKLVNAVQQDVHAILQLGEAQIEKSARALIDAARNEADEKLSAELSRLEALRAVNPNIRDDELTAIESNRQQVMESLDQAGWRLDALRLIVVTHQ” as the sequence, how does the “soluble on expression in E. coli” value read?
**A.** soluble

**Q.** For “MGSDKIHHHHHHMSSHLAHGMGTEPVEPDWPPLTEAEVADVVGPSRVVWRSPRPLSAAAVVERGGRRLFVKRHHLSVRTPEGLAEEHAFLRHLRERGAPVVEVLDVATRQEWVYEVHSAGLGTDLYRDDLSWSPFRSSTHARAAGAALARLHLAADGFEAPRRIPQPLVASFTIFAADDPGTALERYVAERPALAGALADHPWRADTRRVLLPLFERLAPHLPLLEPLWTHNDWHASNLLWDASGEVSTVLDFGMSDRTTAVHDLATAIERNAVQWLQPGFPVREQDVDALLDGYQSVRPLTVSESAALPELLPLVHAEFALSEMGYFHGITGSAENTRLAYAYLVDHAEWFTGDAGSHLVDRVRHRAAAAPKPPPAGRPLSDASS”, which “soluble on expression in E. coli” value is on record?
**A.** not soluble

**Q.** Which “soluble on expression in E. coli” value does the source give for “MYETYHSGWIECITGSMFSGKSEELIRRLRRGIYAKQKVVVFKPAIDDRYHKEKVVSHNGNAIEAINISKASEIMTHNLTNVDVIGIDEVQFFDDEIVSIVEKLSADGHRVIVAGLDMDFRGEPFEPMPKLMAVSEQVTKLQAVCAVCGSSSSRTQRLINGKPAKIDDPIILVGANESYEPRCRAHHIVAPSDNNKEEL” here?
**A.** not soluble

**Q.** Which “soluble on expression in E. coli” value does the source give for “SVACLSCRKRHIKCPGGNPCQKCVTSNAICEYLEPSKKIVVSTKYLQQLQKDLNDKTEENNRLKALLLER” here?
**A.** soluble

**Q.** With “MPFLPPLTPPTELYLGIQLPNPISILVNYLPVSQTPIETLRNLVYSCNINTLAIDEFMTWPSLLQPESTFRSYFELLVERGSIPAVYLEGVRQASNFVTVAQGLSVMTTVALSDPFACFATGLFLTCTGNHLDFLPISEKFWEMTPTLEAGHAVAEMVMYHISQLHTENARRWERSWRFVHPPSCVGQGDCYILLEAKLLRFKLLYSALLSSLLV” as the sequence, how does the “soluble on expression in E. coli” value read?
**A.** not soluble

**Q.** For “SNANRDSLFNDPNAPVLGNPEGDVTVVEFFDYNCPYCRRAMAEVQGLVDADPNVRLVYREWPILGEGSDFAARAALAARQQGKYEAFHWALMGMSGKANETGVLRIAREVGLDTEQLQRDMEAPEVTAHIAQSMALAQKLGFNGTPSFVVEDALVPGFVEQSQLQDAVDRARKAA”, which “soluble on expression in E. coli” value is on record?
**A.** soluble

**Q.** With “MTESTLAFVFPGQGSQSLGMLAELSELHPQIRETFAEASEGAGVDLWALSQGGPEEMLNRTEYTQPALLAAGVAVWRLWTAQRGQRPALLAGHSLGEYTALVAAGVLSLHDGAHLVRLRGQFMQAAAPAGVGAMAAVLGAEDAVVLEVCAEAAGSQVVVPANFNSPGQIVIGGDAAAVDRALALLAERGVRKAVKLAVSVPSHTPLMRDAANQLGEAMAGLSWHAPQIPVVQNVDARVHDGSAAIRQALVEQLYLPVQWTGCVQALASQGITRIAECGPGKVLSGLIKRIDKSLDARPLATPADYAGALDAWAH” as the sequence, how does the “soluble on expression in E. coli” value read?
**A.** soluble

**Q.** Which “soluble on expression in E. coli” value does the source give for “GSPELGFSISGGVGGRGNPFRPDDDGIFVTRVQPEGPASKLLQPGDKIIQANGYSFINIEHGQAVSLLKTFQNTVELIIVREVGNGAKQEIRVRVEKDGGSGGVSSVPTNLEVVAATPTSLLISWDAYRELPVSYYRITYGETGGNSPVQEFTVPGSKSTATISGLKPGVDYTITVYAHYNYHYYSSPISINYRT” here?
**A.** soluble
